Laboratory results reported in article PMC6987454.
“And” between values parts separate entries of the source, which are not always exact repeats. Equal entries are not always repeated. Blank lines part the entries; values can stand above or below the substance they belong to.

Tests used:
[1] = molecular target: AtCGE1 (Arabidopsis chloroplast GrpE homologue 1), mature region, 6xHis-tagged (Arabidopsis); experiment: cross-linking; 5 uM purified protein in common buffer [25 mM Hepes-KOH (pH 7.8), 5 mM MgCl2, 5 mM DTT] crosslinked with glutaraldehyde at 0.05, 0.1 and 0.2% for 10 min; 4-12% SDS-PAGE and CBR staining
AtCGE1 (Arabidopsis chloroplast GrpE homologue 1), mature region, 6xHis-tagged (Arabidopsis), sequence (main, as listed by the source): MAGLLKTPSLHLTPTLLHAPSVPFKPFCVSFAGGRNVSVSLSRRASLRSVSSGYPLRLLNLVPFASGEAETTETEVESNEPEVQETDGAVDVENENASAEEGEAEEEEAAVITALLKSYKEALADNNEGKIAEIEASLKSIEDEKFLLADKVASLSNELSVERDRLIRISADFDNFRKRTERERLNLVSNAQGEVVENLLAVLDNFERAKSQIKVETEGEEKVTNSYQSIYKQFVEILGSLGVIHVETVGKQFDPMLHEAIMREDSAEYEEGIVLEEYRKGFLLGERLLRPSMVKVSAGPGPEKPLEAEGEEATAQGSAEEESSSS

[2] = molecular target: AtCGE2 (Arabidopsis chloroplast GrpE homologue 2), mature region, 6xHis-tagged (Arabidopsis); experiment: as above
[3] = molecular target: AtCGE1 (Arabidopsis chloroplast GrpE homologue 1), mature region, 6xHis-tagged (Arabidopsis); experiment: pull-down; AtCGE1-6xHis and tag-free AtCGE2 co-expressed in E. coli BL21(DE3); crude protein extract bound to Talon beads, stringent wash, elution; bands seen on PAGE

stoichiometry N [1]: 2 and 4
Substance: AtCGE1 (Arabidopsis chloroplast GrpE homologue 1), mature region, 6xHis-tagged (natural protein)

stoichiometry N [2]: 2 and 4
Substance: AtCGE2 (Arabidopsis chloroplast GrpE homologue 2), mature region, 6xHis-tagged (natural protein)

stoichiometry N [3]: 1 molar ratio
Substance: AtCGE2 (Arabidopsis chloroplast GrpE homologue 2), mature region, tag-free, co-expressed with AtCGE1-6xHis (natural protein)
